Consider five substances from paper PMC7781310.

Assay [1] addresses sACE2_(2).v2.4-IgG1 (human) (UniProt Q9BYF1). As to the kind of experiment: BLI.
Assay [2] has as its target Wild type sACE2_(2)-IgG1 (human) (UniProt Q9BYF1). As to the kind of experiment: BLI.

Broadly, the Kd is a measure of binding affinity in units of concentration. Lower therefore signals tighter binding. A word on the koff: it is the first-order rate constant of dissociation. In assay [1], LYRa11 RBD-8h (domain or fragment) yielded a Kd of 1.8 nM and a koff of 0.0025 s⁻¹. In assay [2], the dissociation constant Kd came out at 91 nM and the koff turned out to be 0.079 s⁻¹.

With Rs7327 RBD-8h (domain or fragment), in assay [1], the dissociation constant (Kd) was found to be 1.9 nM and the koff is 0.0018 s⁻¹. In assay [2], the Kd was 63 nM and the koff was 0.04 s⁻¹.

RsSHC014 RBD-8h (domain or fragment) had a dissociation rate constant (koff) in assay [1] of 0.002 s⁻¹.

Consider Rs4084 RBD-8h (domain or fragment), for which, in assay [1], the Kd came out at 3.1 nM and the koff stood at 0.0015 s⁻¹. For the same substance, in assay [2], the Kd amounted to 85 nM and the koff is 0.025 s⁻¹.

In assay [1], Rs4231 RBD-8h (domain or fragment) registered a Kd of 3.5 nM and a koff of 0.0016 s⁻¹. In assay [2], this substance registered a Kd of 69 nM and a koff of 0.022 s⁻¹.
